Drawing on the supplement of paper PMC12042874, this text covers amyloid nucleation score for 140 substances.

± gives the uncertainty stated by the source.

The nature of this data set: amyloid nucleation score (Sup35N fusion, yeast selection) (log enrichment); library NNK1; higher = more nucleation; inactive = no reads after selection. An outline of the steps: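 Psi-negative yeast expressed Sup35N fused to peptides of 20 random codons. They were induced 24 hours with 100 μM copper sulfate, grown 7 days at 30°C without adenine and uracil, and their plasmid inserts from input and output were Illumina-sequenced. The nucleation score is the DiMSum log enrichment of output over input reads, centred on the mode score of non-aggregating sequences. Sequences with under 100 input reads were excluded.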

In turn, FVGFGWYCLDFFHFLNASLG returned an amyloid nucleation score of -0.29 ± 1.4.

For the substance RSHGKAEFEHVGLKFIAG, the amyloid nucleation score was -0.903 ± 1.7.

With NYSYSFIPRSKVNGYEYGGA, the amyloid nucleation score is -0.387 ± 0.32.

CVDRRV came in with an amyloid nucleation score of 0.203 ± 0.56.

The substance SLKFEYCFSPSNVAAVDWGT showed an amyloid nucleation score of -0.34 ± 0.98.

For the substance VAMILYGFTFWILRCNEWCR, the amyloid nucleation score was determined as 0.377 ± 0.24.

Substance RNIATYYFRSN had an amyloid nucleation score of 0.612 ± 0.48.

As for VFLLVPWPVSFGGRIHACEW, the amyloid nucleation score came to 0.286 ± 0.47.

Regarding IVNAGICPGNSRYSGNGATR, the amyloid nucleation score was -0.162 ± 0.53.

For the substance SSFSLGHVDGYKSTSVDAVL, the amyloid nucleation score stood at 0.048 ± 1.4.

Substance STSMDPLYYDYDRLYKIHDK displayed an amyloid nucleation score of 0.484 ± 0.61.

On to NCLCIMSPCLLPCWEWVSYR, for which the amyloid nucleation score was found to be 5.834 ± 0.055.

Take YDLRNICTSTLMSHVNRFYV: the amyloid nucleation score is -1.22 ± 0.83.

In turn, YPVVHDM displayed an amyloid nucleation score of -0.426 ± 0.56.

As for RNSITEIPCPEMYSNNRLAF, the amyloid nucleation score turned out to be 1.13 ± 0.12.

On to NVVSF, for which the amyloid nucleation score is -0.466 ± 1.2.

Regarding TVIIWDENIWYFGAYAW, the amyloid nucleation score is -1.53 ± 0.83.

As for KFSFCKS, the amyloid nucleation score worked out at 0.207 ± 0.31.

In the case of LRHTCVRPSWSNAIFMPNSA, the amyloid nucleation score is 0.834 ± 0.57.

The substance IKSGPPGRRQLFN had an amyloid nucleation score of -0.741 ± 0.81.

With IVDVVLSMGLLYLTSVNY, the amyloid nucleation score is -0.369 ± 0.74.

On to ICIASFCKKNVTCGLIWLIV, for which the amyloid nucleation score was determined as 1.51 ± 0.7.

Substance HGLGALYTSVRRARLGFFYC returned an amyloid nucleation score of 4.23 ± 0.15.

Turning to SDVVGGYWEDKTSSYGSRLM, the amyloid nucleation score came to 0.423 ± 0.52.

With WLHIPYS, the amyloid nucleation score was 0.547 ± 0.61.

In the case of SCVSSLYCH, the amyloid nucleation score came out at 0.057 ± 0.65.

The substance CRSSVFKYVPVSNIFDYFSI displayed an amyloid nucleation score of 0.921 ± 0.84.

As for LGMKSVKWL, the amyloid nucleation score was found to be 0.345 ± 0.53.

For the substance TVNCGQSSMWDFWTGLTECG, the amyloid nucleation score is -0.22 ± 0.75.

For HAMISWDISNVCVYWHMCPW, the amyloid nucleation score worked out at 0.12 ± 0.33.

In turn, HLDGSVISNSMVNIVFLSLV displayed an amyloid nucleation score of 5.71 ± 0.072.

VSYYITCRGKVETIALADRM gave an amyloid nucleation score of 0.088 ± 0.93.

Regarding RSDNSCRRLLEDWRSWRRAV, the amyloid nucleation score result is “inactive”.

The substance FGINVVRGKCRVRSLKDIDS came in with an amyloid nucleation score of -0.086 ± 0.48.

VNTVMGTMQLKLCHKLRIVG: the amyloid nucleation score was 0.19 ± 0.71.

For DSGLFSKVVMHDNPSSVDKL, the amyloid nucleation score was -0.123 ± 0.64.

Consider AGWYINYTGKRDDARLLY, for which the amyloid nucleation score amounted to 0.187 ± 0.86.

ATMYICTRHSTAYGVFHSFV had an amyloid nucleation score of 0.105 ± 1.2.

On to NSRSLFFYDSYVAGWYN, for which the amyloid nucleation score came out at 0.542 ± 0.31.

As to RSIPSMEVSVMK, the amyloid nucleation score was -0.805 ± 0.73.

The substance IRSAN showed an amyloid nucleation score of 0.918 ± 1.1.

IAREVSSVTVSPQEGTRWWG showed an amyloid nucleation score of 0.276 ± 0.3.

The substance RPHECRSWAPVRALSGDAHL came in with an amyloid nucleation score of 2.91 ± 0.13.

NPRVNNYRVNGWKRGIRDRA displayed an amyloid nucleation score of 0.66 ± 0.35.

Take NGKDFWMSGRYAYVSMHFDR: the amyloid nucleation score was 1.13 ± 0.31.

In the case of TVIFMCLTAFGTSGNHIGSR, the amyloid nucleation score is -0.776 ± 0.81.

Substance RYISYAKCRNYNGLIMYYLY registered an amyloid nucleation score of 2.52 ± 0.11.

In the case of SVSEGRVGLYNCG, the amyloid nucleation score was determined as 0.449 ± 0.89.

In the case of ILSAMVRE, the amyloid nucleation score is -0.081 ± 0.23.

As to YRSSGWRNTSSRAVLCCLDE, the amyloid nucleation score is -0.356 ± 0.38.

VMDGYVSGCFLWRCCNRNRS showed an amyloid nucleation score of 2.92 ± 0.12.

The substance YIWAFLVGFVLTHYCSPHPD registered an amyloid nucleation score of -1.07 ± 0.68.

Turning to VVSNTGSFSPVRMR, the amyloid nucleation score is -0.117 ± 0.42.

For the substance CVCMVRYGVRAHR, the amyloid nucleation score turned out to be 0.469 ± 0.64.

Consider TYHFIYEWISLTIT, for which the amyloid nucleation score entry is “inactive”.

CTADWLRDPRVGVRGPEGGG showed an amyloid nucleation score of 0.273 ± 0.3.

HYLVLYVIMYMFVQMSLPC: the amyloid nucleation score amounted to 2.14 ± 0.49.

As for CMSRSYYYTSPKDPKEFNC, the amyloid nucleation score amounted to 0.56 ± 0.33.

NYFNL: the amyloid nucleation score was 0.21 ± 0.46.

For the substance AYLGASREIYCYGPMYYMLP, the amyloid nucleation score is 2.97 ± 0.098.

Substance ELGGVWN gave an amyloid nucleation score of 0.701 ± 0.58.

Turning to VGIILRLVQYSDEYYSCYAG, the amyloid nucleation score is -2.62 ± 2.4.

Regarding PFGDSAPKTIRIMAVLIFTV, the amyloid nucleation score was -0.237 ± 1.9.

As to SVLTSMSITCWWKFWVGMSM, the amyloid nucleation score is -0.731 ± 1.4.

Consider GRKRYKRATHH, for which the amyloid nucleation score was -0.593 ± 1.5.

GFIQWLMLWRVFFSM: the amyloid nucleation score is -0.681 ± 0.39.

Regarding STEIATKGGGQLGIISTNDA, the amyloid nucleation score came to 0.254 ± 0.56.

With WDDSINCTTK, the amyloid nucleation score entry was “inactive”.

In turn, MFEFKKPD yielded an amyloid nucleation score of -0.015 ± 0.73.

ICQRSRAGSGSEVLT: the amyloid nucleation score was -0.205 ± 0.49.

HNSNECYYF showed an amyloid nucleation score of -1.06 ± 2.4.

WLISLFRDDDRFNKVSKRAA returned an amyloid nucleation score of -0.3 ± 0.38.

FACSFQSNLLDKKYTSLVNL returned an amyloid nucleation score of 0.051 ± 0.55.

In the case of KYHRFFAG, the amyloid nucleation score is -1.02 ± 1.8.

GSDQLSTT returned an amyloid nucleation score of -0.338 ± 0.43.

TSLYNCRVRRLYFWWLRIML had an amyloid nucleation score of 1.14 ± 0.7.

The substance NALILRGLVCLSWKLELTHF returned an amyloid nucleation score of -0.866 ± 1.9.

IESWCLMSVNSDGARWSSRF: the amyloid nucleation score was -0.872 ± 0.83.

With WGFESFSAWATMCERSRWHR, the amyloid nucleation score was 0.428 ± 0.55.

For the substance MVSDMLVKATVHPMYFMTLW, the amyloid nucleation score is -0.34 ± 0.32.

FKYSGRCWGANECIKNYNYV yielded an amyloid nucleation score of 0.07 ± 0.39.

DVQQPPMDSISH gave an amyloid nucleation score of 1.17 ± 0.57.

On to QIRRGCRYFW, for which the amyloid nucleation score is -0.856 ± 1.1.

Turning to SLWRDKDISWGGKSYVHVPS, the amyloid nucleation score was determined as 1.14 ± 0.75.

WAFIHSCRYKLTCGGYFYAR gave an amyloid nucleation score of -0.236 ± 1.2.

For HNFLLYVSSYSFFHRLFMLH, the amyloid nucleation score worked out at 0.149 ± 0.46.

On to RSCELGFDPVKKFFRIRIWG, for which the amyloid nucleation score was -0.006 ± 0.47.

In the case of CTGPMD, the amyloid nucleation score is 0.055 ± 0.57.

As to RLASYHITVYRHTRSIVQ, the amyloid nucleation score was 0.612 ± 0.29.

With AMLSIVSISAS, the amyloid nucleation score stood at 1.39 ± 0.69.

STNIFSYATLSGFYTVTMIR came in with an amyloid nucleation score of -0.618 ± 0.49.

Take VIDKDGVANGKVVLASHCVN: the amyloid nucleation score is -0.766 ± 0.86.

VLSFVLDYCNAEV: the amyloid nucleation score was found to be 0.653 ± 0.45.

IFFKLVLVWTFLLTYQAYWV registered an amyloid nucleation score of 0.174 ± 0.85.

Substance TGSTR returned an amyloid nucleation score of 0.391 ± 0.22.

As for YNCFMFAMFARSDSYMGIAS, the amyloid nucleation score is 0.597 ± 0.26.

MGGSCTSEQYCDWANYGDVL came in with an amyloid nucleation score of 0.125 ± 1.4.

Regarding SVSGLYQHRSF, the amyloid nucleation score was 0.184 ± 0.35.

MRVWKSILFDRSFFVFGLWR: the amyloid nucleation score is -0.543 ± 0.6.

LGKNFLYISCSLTDQGAGLH: the amyloid nucleation score is 2.7 ± 0.16.

As to FRSVVWRLHTFY, the amyloid nucleation score was -0.075 ± 0.5.

MIKSKM gave an amyloid nucleation score of -0.154 ± 0.61.

Substance GNWGNGSGTCLCTSSFYCRL gave an amyloid nucleation score of 2.78 ± 0.14.

On to WLTNWFEPRWSLVMQSVRCP, for which the amyloid nucleation score is -0.121 ± 0.44.

DASGNYWGWKLWGDQGERGY: the amyloid nucleation score result was “inactive”.

In the case of LGMWRCKPRTTLAWSYLDPV, the amyloid nucleation score amounted to 0.179 ± 0.71.

In the case of TSCFCI, the amyloid nucleation score is -0.133 ± 0.33.

YSLYTNSHVPAWHSPSISHG registered an amyloid nucleation score of -0.38 ± 0.82.

In turn, IPARTESDTRYMSMCGSNNQ gave an amyloid nucleation score of -0.317 ± 0.55.

Consider VFAVLRLPPKMTARSMGASP, for which the amyloid nucleation score came to 0.661 ± 0.61.

Regarding LMTLINPQFFSCSFLDDVSN, the amyloid nucleation score was -0.362 ± 0.6.

On to FGAVVADGMKLFSVSFS, for which the amyloid nucleation score is -0.711 ± 0.52.

TVHFSDWMIPNTRLEATCGM: the amyloid nucleation score is 0.158 ± 0.31.

Take KNNIDIAFAV: the amyloid nucleation score is -0.065 ± 0.98.

With SLPFTFSLVMMCFFVCVRGL, the amyloid nucleation score was -1.76 ± 1.2.

CWTCTSRVEWSPV had an amyloid nucleation score of -0.374 ± 0.74.

The substance PLVVGRVCEGYRRWCWFGRR came in with an amyloid nucleation score of -0.369 ± 0.38.

On to RVWYGFYCELITTPRFASGV, for which the amyloid nucleation score is -0.322 ± 1.7.

As for FLGPIAIVGRHLMICIMQSH, the amyloid nucleation score was determined as 0.855 ± 0.43.

The substance LNLAKPLFSHRLRRFKCSYF had an amyloid nucleation score of 2.08 ± 0.23.

In the case of LYMYSLSFLMGGNANHRLGM, the amyloid nucleation score was 1.98 ± 0.16.

DGTVGSYCMIFWELYRDNFF returned an amyloid nucleation score of -0.761 ± 1.2.

CERLKT registered an amyloid nucleation score of 0.784 ± 0.35.

Substance CSYPYGQSEDCGSRSGRGYA yielded an amyloid nucleation score of 0.877 ± 1.

On to DYRGYFKSDIYSNFLTFLPG, for which the amyloid nucleation score was -0.663 ± 0.22.

Substance MVYLGECCITFYSFNSYRVM registered an amyloid nucleation score of 4.55 ± 0.053.

In turn, EVENRFVCGNSDLSGNDANK had an amyloid nucleation score of -0.489 ± 0.75.

The substance FLPMSLGWVHKQLIFSPRWY yielded an amyloid nucleation score of 1 ± 0.66.

On to VYGFDRFKVRRMGESLWWS, for which the amyloid nucleation score result is “inactive”.

LVASSFDYMMLSSVGRGYGL showed an amyloid nucleation score of -0.245 ± 0.3.

KITWDLF had an amyloid nucleation score of 0.759 ± 0.52.

On to EFGASRNAYTMRRILENGSA, for which the amyloid nucleation score was -0.123 ± 0.38.

As for VTYNGYVG, the amyloid nucleation score is -0.205 ± 0.58.

LSYRSSRFGVS had an amyloid nucleation score of 0.3 ± 0.64.

In turn, HIWLVVKKFPNIEHSIMIGS had an amyloid nucleation score of -0.334 ± 1.2.

As for KYPYLYLPIRMLNRQHARVG, the amyloid nucleation score stood at 0.449 ± 0.62.

In turn, YWGFGYPMFLNINMCLTSPE displayed an amyloid nucleation score of 6.21 ± 0.091.

For YGLPLWCNMCSRSANRC, the amyloid nucleation score was 0.365 ± 0.48.

On to WDHQNMNLYYIKYGMVMNQS, for which the amyloid nucleation score came out at 3.17 ± 0.067.

As for SIRFMLYVRVKR, the amyloid nucleation score is -0.234 ± 0.66.
